The data set deals with the molecule itself. Nature of the data set: Sephacryl S100 gel filtration; self-association. A general note: Size exclusion chromatography separates by hydrodynamic size, large species first.

B1: Strep-tagged Δ513 of NPR1 (other)
chain: AVLDQIMNCEDLTQLACGEDDTAEKRLQKKQRYMEIQETLKKAFSEDNLELGNSSLTDSTSSTSKSTGGKRSNRKLSHRRR
notes: E. coli-produced; used in S100 gel filtration; not shown: N-terminal Strep-Tag (and any vector linker)
Take B1: the binding result is recorded as “binds”.

The record behind these values is patent US20140031234A1 (published 2014).
